Reference: article doi:10.1101/2020.02.12.946293 (bioRxiv, 2020)

Biological target: hMLH1-hMLH3 (human, UniProt P40692;Q9UHC1)
Assay: pull-down

hMLH1-hMLH3, sequence (P40692 whole entry, chain 1 of 2): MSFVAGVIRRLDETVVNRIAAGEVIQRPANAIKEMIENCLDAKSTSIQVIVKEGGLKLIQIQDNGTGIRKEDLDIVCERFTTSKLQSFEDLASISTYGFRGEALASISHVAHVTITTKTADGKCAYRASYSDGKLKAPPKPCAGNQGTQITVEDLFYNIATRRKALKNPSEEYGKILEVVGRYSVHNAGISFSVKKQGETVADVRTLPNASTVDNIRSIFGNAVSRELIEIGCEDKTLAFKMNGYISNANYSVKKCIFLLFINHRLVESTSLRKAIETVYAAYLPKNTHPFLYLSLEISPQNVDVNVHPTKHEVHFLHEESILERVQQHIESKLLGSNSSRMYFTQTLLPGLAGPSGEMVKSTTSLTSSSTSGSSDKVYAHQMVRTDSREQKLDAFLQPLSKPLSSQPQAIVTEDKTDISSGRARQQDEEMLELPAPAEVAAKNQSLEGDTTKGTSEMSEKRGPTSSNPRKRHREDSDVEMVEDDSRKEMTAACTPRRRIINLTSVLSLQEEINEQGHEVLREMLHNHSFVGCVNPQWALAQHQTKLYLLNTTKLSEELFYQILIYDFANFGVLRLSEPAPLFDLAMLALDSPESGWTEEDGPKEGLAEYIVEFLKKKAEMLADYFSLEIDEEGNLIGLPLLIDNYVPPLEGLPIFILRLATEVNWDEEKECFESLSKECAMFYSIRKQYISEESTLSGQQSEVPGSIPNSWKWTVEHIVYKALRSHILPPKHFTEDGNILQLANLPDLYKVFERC
hMLH1-hMLH3, sequence (Q9UHC1 whole entry, chain 2 of 2): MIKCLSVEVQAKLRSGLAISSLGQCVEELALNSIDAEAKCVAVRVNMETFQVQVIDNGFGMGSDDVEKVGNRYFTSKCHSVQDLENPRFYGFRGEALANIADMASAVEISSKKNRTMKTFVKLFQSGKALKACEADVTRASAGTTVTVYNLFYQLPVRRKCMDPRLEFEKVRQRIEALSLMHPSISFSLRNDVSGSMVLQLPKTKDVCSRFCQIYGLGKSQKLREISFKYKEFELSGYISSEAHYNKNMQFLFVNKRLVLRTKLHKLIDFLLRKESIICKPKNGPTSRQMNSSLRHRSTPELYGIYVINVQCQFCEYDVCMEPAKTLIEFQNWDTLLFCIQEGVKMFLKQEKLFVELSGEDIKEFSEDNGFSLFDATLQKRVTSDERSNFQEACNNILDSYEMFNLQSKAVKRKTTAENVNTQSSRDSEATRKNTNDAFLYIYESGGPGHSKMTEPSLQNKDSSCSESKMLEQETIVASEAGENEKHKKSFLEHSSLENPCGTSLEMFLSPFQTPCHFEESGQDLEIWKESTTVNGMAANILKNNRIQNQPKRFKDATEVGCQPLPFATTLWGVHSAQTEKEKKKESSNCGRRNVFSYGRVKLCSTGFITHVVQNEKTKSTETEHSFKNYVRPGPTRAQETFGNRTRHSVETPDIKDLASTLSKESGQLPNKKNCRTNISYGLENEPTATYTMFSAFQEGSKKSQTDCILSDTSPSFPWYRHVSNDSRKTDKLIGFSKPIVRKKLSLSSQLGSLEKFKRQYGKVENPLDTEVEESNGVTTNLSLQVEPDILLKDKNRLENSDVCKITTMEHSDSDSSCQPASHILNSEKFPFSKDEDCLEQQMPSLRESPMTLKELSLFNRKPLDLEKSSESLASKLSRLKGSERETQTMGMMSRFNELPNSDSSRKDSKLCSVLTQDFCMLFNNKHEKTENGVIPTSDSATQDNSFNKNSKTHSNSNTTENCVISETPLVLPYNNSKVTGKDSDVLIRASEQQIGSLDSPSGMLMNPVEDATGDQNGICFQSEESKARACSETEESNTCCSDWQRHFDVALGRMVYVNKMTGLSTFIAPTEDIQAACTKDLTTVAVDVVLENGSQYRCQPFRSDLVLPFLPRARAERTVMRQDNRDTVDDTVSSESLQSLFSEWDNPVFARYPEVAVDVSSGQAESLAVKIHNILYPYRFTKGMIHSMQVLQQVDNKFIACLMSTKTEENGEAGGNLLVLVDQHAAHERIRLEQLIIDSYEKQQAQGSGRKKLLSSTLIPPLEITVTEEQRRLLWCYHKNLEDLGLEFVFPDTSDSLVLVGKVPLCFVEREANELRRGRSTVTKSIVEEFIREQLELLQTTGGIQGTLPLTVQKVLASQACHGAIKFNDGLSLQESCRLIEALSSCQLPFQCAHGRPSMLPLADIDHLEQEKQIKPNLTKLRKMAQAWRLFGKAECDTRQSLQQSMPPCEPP

B1: hEXO1(D173A) (enzyme)
chain: MGIQGLLQFIKEASEPIHVRKYKGQVVAVDTYCWLHKGAIACAEKLAKGEPTDRYVGFCMKFVNMLLSHGIKPILVFDGCTLPSKKEVERSRRERRQANLLKGKQLLREGKVSEARECFTRSINITHAMAHKVIKAARSQGVDCLVAPYEADAQLAYLNKAGIVQAIITEDSALLAFGCKKVILKMDQFGNGLEIDQARLGMCRQLGDVFTEEKFRYMCILSGCDYLSSLRGIGLAKACKVLRLANNPDIVKVIKKIGHYLKMNITVPEDYINGFIRANNTFLYQLVFDPIKRKLIPLNAYEDDVDPETLSYAGQYVDDSIALQIALGNKDINTFEQIDDYNPDTAMPAHSRSHSWDDKTCQKSANVSSIWHRNYSPRPESGTVSDAPQLKENPSTVGVERVISTKGLNLPRKSSIVKRPRSAELSEDDLLSQYSLSFTKKTKKNSSEGNKSLSFSEVFVPDLVNGPTNKKSVSTPPRTRNKFATFLQRKNEESGAVVVPGTRSRFFCSSDSTDCVSNKVSIQPLDETAVTDKENNLHESEYGDQEGKRLVDTDVARNSSDDIPNNHIPGDHIPDKATVFTDEESYSFESSKFTRTISPPTLGTLRSCFSWSGGLGDFSRTPSPSPSTALQQFRRKSDSPTSLPENNMSDVSQLKSEESSDDESHPLREEACSSQSQESGEFSLQSSNASKLSQCSSKDSDSEESDCNIKLLDSQSDQTSKLRLSHFSKKDTPLRNKVPGLYKSSSADSLSTTKIKPLGPARASGLSKKPASIQKRKHHNAENKPGLQIKLNELWKNFGFKKDSEKLPPCKKPLSPVRDNIQLTPEAEEDIFNKPECGRVQRAIFQ
- binding result: binds
